Laboratory results taken from patent US20250170216A1 (Protagonist Therapeutics, Inc., priority 2022, published 2025).
Like-named read-outs stand apart in the source and are kept apart here.

How the values were obtained:
[1] = target: T1, ferroportin fused to green fluorescent protein (Mus musculus, UniProt Q9JHI9); conditions: read-out: EC50 (loss of fluorescence); 24 hours incubation; Hep25 preparations; cited from earlier work
T1 construct: expressed in transfected cells
T1 sequence (Q9JHI9 1-570): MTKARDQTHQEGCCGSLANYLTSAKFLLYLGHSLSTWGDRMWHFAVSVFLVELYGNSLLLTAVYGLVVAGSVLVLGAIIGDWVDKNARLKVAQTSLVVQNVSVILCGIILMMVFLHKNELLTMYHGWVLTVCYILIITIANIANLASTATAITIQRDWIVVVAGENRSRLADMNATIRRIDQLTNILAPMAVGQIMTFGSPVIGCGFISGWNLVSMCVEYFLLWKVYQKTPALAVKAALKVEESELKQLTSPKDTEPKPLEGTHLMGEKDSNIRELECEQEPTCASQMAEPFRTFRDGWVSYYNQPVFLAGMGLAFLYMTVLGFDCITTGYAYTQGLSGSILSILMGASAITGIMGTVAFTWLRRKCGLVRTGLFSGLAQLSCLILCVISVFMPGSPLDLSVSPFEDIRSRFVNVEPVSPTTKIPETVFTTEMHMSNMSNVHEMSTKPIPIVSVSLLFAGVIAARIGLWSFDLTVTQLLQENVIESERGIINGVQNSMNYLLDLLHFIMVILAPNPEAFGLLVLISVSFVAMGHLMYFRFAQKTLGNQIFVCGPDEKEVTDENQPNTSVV

ferroportin [2] = target: T2, ferroportin (Homo sapiens, UniProt Q9NP59); assay: FPN activity assay: internalization of ferroportin-GFP in stably transfected HEK293 cells; assay type: cell-based; set-up: expressed in transfected cells
T2 sequence (Q9NP59 1-571): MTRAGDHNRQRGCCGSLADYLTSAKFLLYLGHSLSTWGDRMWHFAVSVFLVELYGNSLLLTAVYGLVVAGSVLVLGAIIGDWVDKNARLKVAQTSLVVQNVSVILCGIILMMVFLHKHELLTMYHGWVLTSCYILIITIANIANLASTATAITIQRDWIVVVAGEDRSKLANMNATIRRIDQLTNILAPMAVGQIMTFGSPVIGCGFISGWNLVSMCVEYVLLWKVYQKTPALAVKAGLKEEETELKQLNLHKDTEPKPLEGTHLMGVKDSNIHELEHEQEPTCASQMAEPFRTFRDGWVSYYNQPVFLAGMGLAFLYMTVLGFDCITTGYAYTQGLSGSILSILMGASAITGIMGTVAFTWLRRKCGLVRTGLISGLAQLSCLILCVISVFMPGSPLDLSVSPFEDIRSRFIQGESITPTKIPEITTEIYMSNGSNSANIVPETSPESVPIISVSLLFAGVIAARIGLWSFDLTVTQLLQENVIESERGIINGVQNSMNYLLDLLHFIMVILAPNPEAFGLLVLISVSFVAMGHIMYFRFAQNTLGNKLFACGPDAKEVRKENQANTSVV
Method: Peptide analogues were tested in vitro for induction of internalization of the human ferroportin protein. Following internalization, the ferroporin protein is degraded. The assay used (FPN activity assay) measures a decrease in fluorescence of the receptor. The cDNA encoding the human ferroportin (SLC40A1) was cloned from a cDNA clone from Origene (NM_014585). The DNA encoding the ferroportin was amplified by PCR using primers also encoding terminal restriction sites for subcloning, but without the termination codon. The ferroportin receptor was subcloned into a mammalian GFP expression vector containing a neomycin (G418) resistance marker in such that the reading frame of the ferroportin was fused in frame with the GFP protein. The fidelity of the DNA encoding the protein was confirmed by DNA sequencing. HEK293 cells were used for transfection of the ferroportin-GFP receptor expression plasmid. The cells were grown according to standard protocol in growth medium and transfected with the plasmids using Lipofectamine (manufacturer's protocol, Invitrogen). […] The EC50 of these reference compounds for ferroportin internalization/degradation was determined according to the FPN activity assay described above. […]

ferroportin [3] = target: T2, ferroportin; assay: T47D cell-based ferroportin internalization assay in presence of 0.5% mouse serum albumin (MSA); set-up: a human breast carcinoma adherent cell line which endogenously expresses ferroportin; host or cells: T47D; conditions: Table 1C
Method: The potency of the peptides in causing ferroportin internalization was evaluated in a T47D cell-based assay. […] In this internalization assay, the potency of the test peptides was evaluated in the presence of serum albumin, which is the main protein component in the blood. T47D cells were maintained in RPMI media (containing required amount of fetal bovine serum) and regularly sub-cultured. In preparation for the assay, the cells were seeded in 96-well plates at a density of 80-100 k cells per well in 100 ul volume and allowed to rest overnight. On the next day, test peptides were first prepared in dilution series (10-point series, starting concentration of ˜5 μM, typically 3-4×fold dilution steps), all with 0.5% mouse serum albumin (MSA purified from mouse serum; Sigma, A3139). The test peptide dilution series were allowed to incubate at room temperature for 30 min. Then the media was aspirated from the 96-well cell plate and test peptide dilution series were added. […] The Median Fluorescence Intensity (MFI) of the AF647-positive population was measured (after removing dead cells and non-singlets from the analysis). […] The IC50 potencies were calculated by using 4-parameter non-linear fitting function in Graphpad Prism, and the results are provided in Table 1C.

[4] = target: human ferroportin (SLC40A1) fused in frame with GFP, stably expressed in HEK293 cells (human) (UniProt Q9NP59); assay: cell-based or functional assay
[5] = target: ferroportin endogenously expressed on T47D cells (HTB 133, ATCC) (human) (UniProt Q9NP59); assay: cell-based or functional assay

For `CC[C@H](C)[C@@H]1NC(=O)[C@@H](NC(=O)[C@@H](NC(=O)[C@@H]2CCCN2C(=O)[C@H](Cc2ccccc2)NC(=O)[C@H](Cc2c[nH]cn2)NC(=O)[C@@H](NC(=O)[C@@H](N)CC(=O)O)[C@@H](C)O)[C@@H](C)CC)CSSC[C@@H](C(=O)N[C@@H](CCCCN)C(=O)N[C@H](C(=O)O)[C@@H](C)O)NC(=O)[C@@H]2CSSC[C@@H]3NC(=O)[C@@H]4CSSC[C@H](NC(=O)[C@H](Cc5ccccc5)NC1=O)C(=O)N[C@@H](CSSC[C@H](NC(=O)[C@H](CCCCN)NC(=O)[C@H](CO)NC(=O)[C@H](CCCNC(=N)N)NC(=O)[C@H](Cc1c[nH]cn1)NC3=O)C(=O)NCC(=O)N[C@@H](CCSC)C(=O)N2)C(=O)NCC(=O)N4` [Hepcidin, Hy-DTHFPIC(1)IFC(2)C(3)GC(2)C(4)HRSKC(3)GMC(4)C(1)KT-OH], the EC50 [1] is given as 5 to 15 nM.
In the case of `CC[C@@H](C)[C@@H](NC(=O)[C@H](N)Cc1ccccc1)C(=O)N[C@H](CS)C(=O)N[C@@H](C(=O)N1CCC[C@@H]1C(=O)N[C@H](Cc1ccccc1)C(=O)N[C@H](Cc1c[nH]cn1)C(=O)N[C@@H](C(=O)N[C@H](CC(=O)O)C(N)=O)[C@H](C)O)[C@H](C)CC` [RI-Mini Hepcidin, Hy-DPhe-DIle-DCys-DIle-DPro-DPhe-DHis-DThr-DAsp-NH2], the DC50 (ferroportin [2]; Table 6 reference compounds, read-out: Potency EC50) is reported as > 10000 nM.
In the case of `CC[C@H](C)[C@@H]1NC(=O)[C@@H](NC(=O)[C@@H]2CCCN2C(=O)[C@@H](NC(=O)[C@H](Cc2cnc[nH]2)NC(=O)[C@@H](NC(=O)[C@H](CCC(=O)O)NC(=O)CC(C)C)[C@@H](C)O)C(c2ccccc2)c2ccccc2)CSSC(C)(C)[C@@H](C(N)=O)NC(=O)[C@@H](CCCCN)NC(=O)C[C@H](Cc2ccccc2)NC(=O)[C@H](CCCCNC(=O)CCOCCOCCOCCOCCOCCOCCOCCOCCOCCOCCOCCOCCNC(=O)CCCCCCCCCCC(=O)O)NC1=O` [compound 4], the IC50 (ferroportin [3]) is reported as 11 to 100 nM and the DC50 (ferroportin [2]; Table 1C, FPN internalization assay, read-out: IC50: FPN) is reported as > 500 nM.
Hepcidin (peptide) showed a Potency EC50 (nM), FPN activity assay [4] of 34 nM.
With “Isovaleric_Acid-E-C-H-DIP-P-C-I-dK-(NMe_Lys_AlbuTag)-dK-C-NH2-Trimethylbenzene (peptide)” the IC50: FPN (nM), FPN internalization assay; *=IC50>500 nM [4] was > 500 nM and the IC50: T47D MSA (nM), T47D internalization assay; *=>500 nM [5] was > 500 nM.
With “Isovaleric_Acid-E-C-H-DIP-P-C-I-dK-DIP-(NMe_Lys_AlbuTag)-dK-C-am-Trimethylbenzene (peptide)” the IC50: T47D MSA (nM), T47D internalization assay; *=>500 nM [5] was > 500 nM.
In the case of “Isovaleric_Acid-E-T-H-DIP-P-C-I-[Lys_1PEG2_1PEG2_Ahx_C4_Diacid]-bhF-[dLys_PEG11_OMe]-C-NH2 (peptide)”, the IC50: FPN (nM), FPN internalization assay; *=IC50>500 nM [4] is reported as > 500 nM.
For “Isovaleric_Acid-E-T-H-DIP-P-C-I-[Lys_PEG12_C6_Diacid]-bhF-[dLys_PEG11_OMe]-Pen-NH2 (peptide)”, the IC50: T47D MSA (nM), T47D internalization assay; *=>500 nM [5] was > 500 nM.
With “Isovaleric_Acid-E-T-H-DIP-P-C-I-[Lys_PEG12_C12_Diacid]-bhF-dK-Pen-NH2 (peptide)” the IC50: FPN (nM), FPN internalization assay; *=IC50>500 nM [4] was > 500 nM.
With “Isovaleric_Acid-E-T-H-DIP-P-C-I-dK-bhF-(Lys_Dap_C8_Diacid)-dK-C-NH2 (peptide)” the IC50: T47D MSA (nM), T47D internalization assay; *=>500 nM [5] was > 500 nM.
With “Isovaleric_Acid-E-hSer-H-DIP-P-C-I-[Lys_1PEG2_1PEG2_Ahx_C18_Diacid]-bhF-[dLys_PEG11_OMe]-C-NH2 (peptide)” the IC50: T47D MSA (nM), T47D internalization assay; *=>500 nM [5] was > 500 nM.
For Mini-Hepcidin 1-9 (peptide), the Potency EC50 (nM), FPN activity assay [4] was 712 nM.
In the case of RI-Mini Hepcidin (peptide), the Potency EC50 (nM), FPN activity assay [4] is reported as > 10000 nM.
